In this assay the target is mouse Pih1 PIH domain Lys 153 charge reversal mutant (mouse, UniProt Q9CQJ2 1-200, Charge reversal of a conserved residue Lys 153). Briefly: ITC. On the technique in general: ITC needs no label: the signal is the heat of the interaction.

This passage reports Kd results from publication PMC4058522 (2014).

Square brackets hold non-standard residues; d marks the D form. Ends that are not written are not given here. pS = N[C@@H](COP(=O)(O)O)C(=O)O

Sequence of mouse Pih1 PIH domain Lys 153 charge reversal mutant (Q9CQJ2 other isoform, or with tags, fused parts or gaps Charge reversal of a conserved residue Lys 153 | mutant): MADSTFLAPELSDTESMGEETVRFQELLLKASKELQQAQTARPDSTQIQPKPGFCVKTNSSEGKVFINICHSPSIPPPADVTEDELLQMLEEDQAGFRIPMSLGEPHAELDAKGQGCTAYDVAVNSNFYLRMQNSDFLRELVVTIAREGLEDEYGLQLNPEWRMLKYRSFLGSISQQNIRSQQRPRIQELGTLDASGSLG

The Kd is the concentration at which binding is half-saturated. Take QGSD[pS]ELD[pS]DDEF [mouse Tel2 484-496 peptide, bis-phosphorylated pSer 488 and pSer 492 (QGSDpSELDpSDDEF)]: the Kd came to 0.22 µM.
